In patent US20200332017A1 (SALUBRIS CHENGDU BIOTECH, published 2020):
Like-named read-outs stand apart in the source and are kept apart here. Values belong to the binder of their own block, whether it stands above or below them.

Columns and labels:
[1] = biological target: T1, human CD40-Fc protein (amino acid residue 21-193 of SEQ ID NO: 67 linked to N-terminus of amino acid residue … (human, biotin-labeled in the capture ELISA and in the benchmark blocking ELISA; unlabeled when coated in the ligand blocking ELISA); test: competitive ELISA; coated human CD40-Fc, competitor biotin human CD40L-his
T1 construct: also called biotin-labeled human CD40-Fc; human CD40-Fc-biotin
Method: (§1) Serially diluted the mouse anti-CD40 antibodies of the present invention or the controls (starting at 200 nM with a four-fold serial dilution) in 2.5% w/v non-fatty milk in PBST were prepared to the plates and incubated with the human CD40-Fc proteins at room temperature for 40 minutes. […] Plates were washed again. 100 μl/well of streptavidin conjugated HRP was added and incubated for 40 minutes at 37° C. Plates were washed again using wash buffer. Finally, TMB was added and the reaction was stopped using 1M H₂SO₄, and the absorbance was read at 450 nm. Data were analyzed using Graphpad Prism software and IC₅₀ values were reported.

[2] = biological target: T1, human CD40-Fc protein (amino acid …); test: capture ELISA, biotin human CD40-Fc; mAb at 3.2 ng/mL
Method: (§2) Plates were washed 4 times with wash buffer (PBS+0.05% Tween-20, PBST) and then blocked with 200 μl/well blocking buffer (5% w/v non-fatty milk in PBST) for 2 hours at 37° C. […] After a final wash, plates were incubated with 100 μl/well ELISA substrate TMB (Innoreagents, Cat # TMB-S-002). The reaction was stopped in 15 minutes at 25° C. with 50 μl/well 1M H₂SO₄, and the absorbance was read at 450 nm and plotted against antibody concentration. Data were analyzed using Graphpad Prism software and EC₅₀ values were reported.

[3] = biological target: T1, human CD40-Fc protein (amino acid …); test: capture ELISA, biotin human CD40-Fc; mAb at 0 ng/mL (blank)
Method: as §2

[4] = biological target: T2, full length human CD40 (uniprot # P25942-1) on the membrane of 293T-CD40 cells (human, UniProt P25942 21-277); test: cell-based or functional assay
[5] = biological target: T2, full length human CD40 (uniprot # …); test: flow cytometry on 293T-CD40 cells, PE-labeled secondary antibody, MFI
Method: 2×10⁵ cells per well in 96 well-plates were incubated with the mouse anti-CD40 antibodies or the controls of various concentrations in FACS buffer for 40 minutes on ice. […] Following an incubation of 40 minutes at 4° C. in dark, cells were washed three times and resuspended in FACS buffer. Fluorescence was measured using a Becton Dickinson FACS Canto II-HTS equipment and plotted against antibody concentration.

[6] = biological target: T1, human CD40-Fc protein (amino acid …); test: capture ELISA, biotin human CD40-Fc; mAb at 400 ng/mL
Method: as §2

[7] = biological target: T3, cynomolgus monkey CD40-his protein (Acro biosystems, Cat # CD0-052H6) (cynomolgus monkey, UniProt G7PG38 21-193); test: SPR, Biacore; cynomolgus CD40-his
T3 construct: Bought reagent; also called Cynomolgus CD40-his
Source text: Briefly, goat anti-mouse IgG (GE healthcare, Cat # BR100838, Mouse Antibody Capture Kit) was covalently linked to a CM5 or a Protein G chip (carboxy methyl dextran coated chip) via primary amines, using a standard amine coupling kit provided by Biacore (GE healthcare, Pittsburgh, Pa., USA). Un-reacted moieties on the biosensor surface were blocked with ethanolamine. […] Then, human CD40-his (Acro biosystems, Cat # CD0-H5228) or cynomolgus monkey CD40-his protein (Acro biosystems, Cat # CD0-052H6) in HBS EP buffer (provided by Biacore) was flowed onto the chip at a flow rate of 30 μL/min. The antigen-antibody association kinetics was followed for 2 minutes and the dissociation kinetics was followed for 10 minutes. The association and dissociation curves were fit to a 1:1 Langmuir binding model using BIA evaluation software.

[8] = biological target: T1, human CD40-Fc protein (amino acid …); test: capture ELISA; antibody captured, biotin-labeled human CD40-Fc in solution
Method: as §2
(§3) In the capture ELISA test, a mouse control antibody targeting a protein other than CD40 was used.

[9] = biological target: T1, human CD40-Fc protein (amino acid …); test: competitive ELISA; coated human CD40-Fc, competitor biotin human CD40L-his; remark: listed apart in the source
Method: Briefly, human CD40-Fc proteins (amino acid residue 21-193 of SEQ ID NO: 67 linked to N-terminus of amino acid residue 99-330 of SEQ ID NO.: 24) were coated on 96-well micro plates at 2 μg/mL in coating buffer (PBS) and incubated overnight at 4° C. The next day, plates were washed with wash buffer (PBS+0.05% Tween-20, PBST), and blocked with 5% w/v non-fatty milk in PBST for 2 hours at 37° C. Plates were then washed again using wash buffer.
as §1, §3

[10] = biological target: T1, human CD40-Fc protein (amino acid …); test: capture ELISA, biotin human CD40-Fc; mAb at 10000 ng/mL
Method: as §2

[11] = biological target: T1, human CD40-Fc protein (amino acid …); test: capture ELISA; antibody captured, biotin-labeled human CD40-Fc in solution; remark: listed apart in the source
Method: as §2

IC50 [1]: 5.4 nM
absorbance at 450 nm [2]: 0.288 OD450
absorbance at 450 nm [3]: 0.124 OD450
cell based functional assay (EC50, nM) [4]: 2.51 nM
EC50 (read off the curve) [5]: ~0.3 µg/mL
absorbance at 450 nm [6]: 1.69 OD450
Kd [7]: 2.35 nM
EC50 [8]: 0.192 nM
IC50 [9]: 5.4 nM
absorbance at 450 nm [10]: 1.81 OD450
EC50 [11]: 0.000155 µg/mL
B1: mouse anti-CD40 monoclonal antibody C1C1 (antibody, V domains shown)
VH: EVKLVESGGGLVKPGASLKLSCAASGFTFSNYGMSWVRQNSDKRLEWVASISSGGDDTYYPDNVKGRCTISRENAKNTLYLEMSSLKTEDTALYYCTRAGGKAMDYWGQGTSVTVST
VL: DIVLTQSPATLSVIPGNSVSLSCRASQSIRDNLHWYQQKSHESPRLLINYASQSISGIPSRFSGSGSGTDFTLTINSVETEDFGIYFCQQFNSWPLTFGGGTKLELK
notes: those are used here for the chimeric antibody only; also called Mouse C1C1; mouse C1C1

IC50 [1]: 4.83 nM
absorbance at 450 nm [2]: 0.082 OD450
absorbance at 450 nm [3]: 0.028 OD450
cell based functional assay (EC50, nM) [4]: 3.28 nM
EC50 (read off the curve) [5]: ~0.3 µg/mL
absorbance at 450 nm [6]: 1.79 OD450
Kd [7]: 2.34 nM
EC50 [8]: 0.24 nM
IC50 [9]: 4.83 nM
absorbance at 450 nm [10]: 1.96 OD450
EC50 [11]: 0.000384 µg/mL
B2: chimeric antibody C1C1 (antibody, human IgG1, kappa, V domains shown)
VH: B1 VH
VL: DIVLTQSPATLSVIPGNSVSLSCRASQSIRDNLHWYQQKSHESPRLLINYASQSISGIPSRFSGSGSGTDFTLTINSVETEDFGIYFCQQFNSWPLTFGGGTKLELKR
notes: also called chC1C1; chimeric C1C1
